Here are results for one molecule from patent US20260159585A1 (SHANGHAI HENLIUS BIOTECH, published 2026).

Assay [1] concerns the target T1, hCD47-His antigen (human, UniProt Q08722 19-139, limits assumed).
T1 construct: also called human CD47; not shown: His tag
Kind of assay: ELISA on coated hCD47-His, HRP anti-human Fc, OD450; plate1.

Assay [2] has as its target T1, hCD47-His antigen. Kind of assay: ELISA on coated hCD47-His, HRP anti-human Fc, OD450; plate2.
Assay [3] deals with T1, hCD47-His antigen. The assay can be described thus: ELISA on coated hCD47-His, HRP anti-human Fc, OD450; plate3. A general note: ELISA stands for enzyme-linked immunosorbent assay.
In assay [4] the target is T1, hCD47-His antigen. Kind of assay: ELISA on coated hCD47-His, HRP anti-human Fc, OD450; plate4.
Assay [5] has as its target T2, human CD47 expressed on cells (human, UniProt Q08722 19-323).
T2 construct: whole, on cells; One molecule for all cell types; also called CD47 on Jurkat cells; CD47 on human red blood cells (RBCs)
The assay can be described thus: FACS, whole cell binding to human primary red blood cells, FITC anti-human Fc; lower panel.

In assay [6] the target is T2, human CD47 expressed on cells. Kind of assay: FACS, whole cell binding to human primary red blood cells, FITC anti-human Fc; upper panel. (A flow cytometer gives signals particle by particle.)

B1: M1 #21 (antibody, V domains shown)
VH: QVQLQQWGAGLLKPSETLSLTCAVYGGSFSGYYWSWIRQPPGKGLEWIGEINQSGSTNYNPSLKSRVTISVDTSKNQFSLRLSSVTAADTAMYYCARFTGRPYYGMDVWGQGTTVTVSS
VL: SYELTQPPSVSATPGQRVTISCSGSESNIGSHKVKWYQQFAGAAPRLLIHGNDQRFSGVPDRFSGSKSGTSASLAISGLQSEDEADYYCAAWDDSLYGRVFGGGTKLTVL
In the case of B1, the half-maximal effective concentration (EC50 (read off the curve)) with hCD47-His antigen [1] is roughly 0.1 nM; in the assay with hCD47-His antigen [2], roughly 0.08 nM; with hCD47-His antigen [3] it was roughly 0.1 nM; with hCD47-His antigen [4] it was roughly 0.07 nM; in assay [5] it was roughly 0.3 nM; in assay [6], roughly 0.2 nM.

Usually EC50 (read off the curve) stands for the concentration that produces a half-maximal response. Read a high EC50 (read off the curve) as weaker potency.
